In patent publication US20160282364A1 (published 2016):

Assays:
31 + insulin = experiment: fluorescence polarization; Kapp, with 2.5 uM insulin
31 = experiment: fluorescence polarization; without insulin

B1: IDE (enzyme)
chain: MNNPAIKRIGNHITKSPEDKREYRGLELANGIKVLLISDPTTDKSSAALDVHIGSLSDPPNIAGLSHFLQHMLFLGTKKYPKENEYSQFLSEHAGSSNAFTSGEHTNYYFDVSHEHLEGALDRFAQFFLSPLFDESAKDREVNAVDSEHEKNVMNDAWRLFQLEKATGNPKHPFSKFGTGNKYTLETRPNQEGIDVRQELLKFHSAYYSSNLMAVVVLGRESLDDLTNLVVKLFSEVENKNVPLPEFPEHPFQEEHLKQLYKIVPIKDIRNLYVTFPIPDLQKYYKSNPGHYLGHLIGHEGPGSLLSELKSKGWVNTLVGGQKEGARGFMFFIINVDLTEEGLLHVEDIILHMFQYIQKLRAEGPQEWVFQELKDLNAVAFRFKDKERPRGYTSKIAGILHYYPLEEVLTAEYLLEEFRPDLIEMVLDKLRPENVRVAIVSKSFEGKTDRTEEWYGTQYKQEAIPDEVIKKWQNADLNGKFKLPTKNEFIPTNFEILPLEKEATPYPALIKDTAMSKLWFKQDDKFFLPKANLNFEFFSPFAYVDPLHSNMAYLYLELLKDSLNEYAYAAELAGLSYDLQNTIYGMYLSVKGYNDKQPILLKKIIEKMATFEIDEKRFEIIKEAYMRSLNNFRAEQPHQHAMYYLRLLMTEVAWTKDELKEALDDVTLPRLKAFIPQLLSRLHIEALLHGNITKQAALGIMQMVEDTLIEHAHTKPLLPSQLVRYREVQLPDRGWFVYQQRNEVHNNSGIEIYYQTDMQSTSENMFLELFAQIISEPAFNTLRTKEQLGYIVFSGPRRANGIQGLRFIIQSEKPPHYLESRVEAFLITMEKSIEDMTEEAFQKHIQALAIRRLDKPKKLSAESAKYWGEIISQQYNFDRDNTEVAYLKTLTKEDIIKFYKEMLAVDAPRRHKVSVHVLAREMDSNPVVGEFPAQNDINLSQAPALPQPEVIQNMTEFKRGLPLFPLVKPHINFMAAKL
- Kd (31 + insulin): 0.28 µM
- Kd 31: 0.042 µM
